Patent US20240325499A1, “FGF21 COMPOUND / GLP-1R AGONIST COMBINATIONS WITH OPTIMIZED ACTIVITY RATIO” (SANOFI, priority 2018, published 2024)

Assays:
[1] = target: T1, human FGFR1c and KLB (Homo sapiens, UniProt P11362+Q86Z14); assay: In-Cell Western FGF21 receptor autophosphorylation (pFGFR ICW) in CHO cells; type: cell-based; conditions: CHO cells overexpressing human FGFR1c and KLB; 5 min stimulus; n = 59
T1 construct: host or cells: CHO Flp-In cells
Description: (§1) The cellular in vitro efficacy of mature human FGF21 (SEQ ID NO: 2) or FGF21 variants was measured using a specific and highly sensitive In-Cell Western (ICW) assay. The ICW assay is an immunocytochemical assay usually performed in microplate format. CHO Flp-In cells (Invitrogen, Darmstadt, Germany) stably expressing the human FGFR1c (=FGF receptor 1c isoform) together with human beta-Klotho (KLB) were used for an FGF21 receptor autophosphorylation assay using In-Cell Western (Aguilar H. N. et al. (2010) PLoS ONE 5(4): e9965). In order to determine the receptor autophosphorylation level or downstream activation of the MAP kinase ERK1/2, 2×10^4 cells/well were seeded into 96-well plates and grown for 48 h. Cells were serum starved with serum-free medium Ham's F-12 Nutrient Mix with GlutaMAX (Gibco, Darmstadt, Germany) for 3-4 h. The cells were subsequently treated with increasing concentrations of either mature human FGF21 (SEQ ID NO: 2) for 5 min at 37° C. After incubation, the medium was discarded, and the cells were fixed in 3.7% freshly prepared para-formaldehyde for 20 min. […] Subsequently, cells were washed again with PBS plus 0.1% Tween20, and infrared dye signals were quantified with an Odyssey imager (LICOR, Bad Homburg, Germany). Results were normalized by quantification of DNA with TO-PRO3 dye (Invitrogen, Karlsruhe, Germany). […]

[2] = target: T1, human FGFR1c and KLB; assay: In-Cell Western ERK1/2 phosphorylation (pERK ICW) in CHO cells; type: cell-based; conditions: CHO cells overexpressing human FGFR1c and KLB; 5 min stimulus; n = 61
Description: as §1

B1: mature human wild-type FGF21, FGF21(His29-Ser209) (protein, listed as Homo sapiens)
chain: HPIPDSSPLLQFGGQVRQRYLYTDDAQQTEAHLEIREDGTVGGAADQSPESLLQLKALKPGVIQILGVKTSRFLCQRPDGALYGSLHFDPEACSFRELLLEDGYNVYQSEAHGLPLHLPGNKSPHRDPAPRGPARFLPLPGLPPAPPEPPGILAPQPPDVGSSDPLSMVGPSQGRSPSYAS
[1]
  EC50: 4.8 ± 0.23 nM
[2]
  EC50: 0.18 ± 0.02 nM
